Source: patent publication US6780611B1, “Polynucleotide encoding neuromedin U receptor” (Pfizer Inc., priority 1999, dated 2004)
No end group written: not given here.

Target: T1, PFI-002 receptor (Homo sapiens, UniProt Q9GZQ4, S2A)
T1 construct: expressed in transfected cells; host or cells: HEK 293 (human embryonic kidney), transient transfection
Experiment: Functional screen of peptides by FLIPR (Fluo-3 fluorescence) in HEK 293 cells transiently transfected with PFI-002
Format: cell-based
Conditions: HEK 293 cells transiently transfected with PFI-002, Fluo-3 loaded; neuromedins 10 μM final, in triplicate; other peptides 5 μM final
Experimental: Transient Expression in Native HEK 293 Cells
Transfection: 7.5 μg of PFI-002 DNA was transiently transfected into native human embryonic kidney 293 (HEK 293) cells (75 cm^2 flask, 80% confluent) using the Lipofectamine Plus protocol (Life Technologies, Inc.) and following the manufacturer's instructions. 24 hrs after transfection, the cells were detached with trypsin and seeded into black walled 96 well plates at a density of 5×10^4 cells/well. The next day the cells were loaded with Fluo-3 in the presence of 3 mM probenicid (Molecular Devices; inhibits activity of the anion transport protein, thus improving dye loading) for 1.5 hours (loading dye/96 well plate: 50 μg Fluo-3 in 20 μl DMSO+20 μl 20% pluronic acid in DMSO+11 ml growth media+3 mM probenicid—added 100 μl loading dye/well). After washing (wash buffer PBS/3 mM probenicid/pH 7.4), the cells were exposed to 60 peptides (final concentration 5 μM each) arrayed in a 96 well plate. In addition, neuromedins B, C, N, U8 and U25 (final concentration 10 μM each) were screened in triplicate. Fluorescence was measured by a Fluorometric Imaging Plate Reader (FLIPR, Molecular Devices) according to the manufacturer's protocol.

T1 sequence (Q9GZQ4 whole entry S2A): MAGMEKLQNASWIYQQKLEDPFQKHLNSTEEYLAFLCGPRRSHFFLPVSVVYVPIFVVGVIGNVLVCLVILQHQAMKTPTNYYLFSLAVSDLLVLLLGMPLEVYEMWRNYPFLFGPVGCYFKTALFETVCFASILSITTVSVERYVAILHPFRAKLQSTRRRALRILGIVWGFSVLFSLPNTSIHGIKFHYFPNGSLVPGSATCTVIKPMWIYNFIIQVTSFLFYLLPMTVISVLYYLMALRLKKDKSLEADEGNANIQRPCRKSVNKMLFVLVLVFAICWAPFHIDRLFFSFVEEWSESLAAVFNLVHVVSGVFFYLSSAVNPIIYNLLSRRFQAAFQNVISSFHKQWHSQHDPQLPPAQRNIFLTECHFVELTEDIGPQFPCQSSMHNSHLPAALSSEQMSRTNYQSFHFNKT

## neuromedin U: Peptide ligand of the PFI-002 receptor; screened as Neuromedin U8 and Neuromedin U25 (wells F10-G3) (FRVDEEFQSPFASQSRGYFLFRPRN; ends and bridges not checked; UniProt P48645 142-166, looked up)
  functional response of PFI-002 receptor (fluorescence measured by FLIPR, FIG. 2): specific functional response
